Source: patent US20210130452A1 (Merck KGaA, published 2021)
Residue numbers refer to the chain shown, from its start. Numbers in names are those of the source.

T1: human IL-17F (human, UniProt Q96PD4 31-163, biotinylated with Sulfo-NHS-LC-Biotin in the AlphaScreen assays only)
T1 sequence: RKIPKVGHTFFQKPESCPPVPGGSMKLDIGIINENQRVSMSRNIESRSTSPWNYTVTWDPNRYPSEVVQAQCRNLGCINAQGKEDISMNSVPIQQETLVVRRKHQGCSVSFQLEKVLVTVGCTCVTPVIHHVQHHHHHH

T2: human IL-17F (human, UniProt Q96PD4 31-163)
T2 construct: made in Hek293 cells (GenBank AF384857); also called hIL-17F; hIL17F
T2 sequence: T1 sequence

B1: 18B05 (VHH)
VHH: EVQLVKSGGGLVQPGGSLRLSCAASGGTFSLFAMGWFREAPGKEREFVAAIRWSDGSSYYADSVKGRFTISRDNAKNAVHLQSNSLKSEDTAVYYCYADVQGGLHRYWGQGTQVTVSS
notes: Class 4 Nanobody (cross-reactive: anti-IL-17A, IL-17F and IL-17A/F); not shown: c-myc, His6 tag
B2: 17C01 (VHH)
VHH: EVQLVESGGRLVQAGGSLRLPCAASGRTFTSYPMGWFRQAPGKEREFVAAISMSGDDAAYADFVRGRFTISRDDARNTVYLHMTSLKPEDTAVYYCAARTSYDGTYDYIDDYSYWGQGTQVTVSS
notes: as for B1
B3: 03E05 (VHH)
VHH: EVQLVESGGGLVQAGGSLRLSCAASGVTFDDYSIGWFRQAPGKEREGVSCISSSDGIPYYSDFVKGRFTTSIDNAKNTVYLQMNSLKPEDTAVYYCAAGFGRLCAEFDSWGQGTQVTVSS
notes: Class 1 Nanobody (anti-IL-17A); not shown: c-myc, His6 tag
B4: 01D02 (VHH)
VHH: EVQLVESGGGLVQAGGSLRLSCAASGLSFSSYALGWFRQAPGKERDFVAAINWSGDNTHYADSVKGRFTISRDNAKNTVSLQMNSLKPEDTAVYYCAAQLGYESGYSLTYDYDYWGQGTQVTVSS
notes: as for B3
B5: 02E03 (VHH)
VHH: EVQLVESGGGLVQPGGSLRLSCAASGFTFSSYAMSWARQAPGEGLEWVSDINSGGTRTTYADSVKGRFTISRDNAKNTLYLQMNSLKPEDTAVYVCAKLSVFRSQLGGKYYGGDYENRGQGTQVTVSS
notes: as for B3
B6: 16A04 (VHH)
VHH: EVQLVESGGGLVQAGGSLRLSCAASGRTFSSYVVGWFRQAPGKEREFIGAISGSGDSIYYAVSEKDRFTISRDNGKNTLYLQMSSLKAEDTAVYYCTADQEFGYLRFGRSEYWGQGTQVTVSS
notes: Class 3 Nanobody (anti-IL-17F); also called IL17MS16A04; not shown: c-myc, His6 tag
B7: IL17MS3018 (VHH)
VHH: EVQLVESGGGLVQPGGSLRLSCAASGRTYDAMGWLRQAPGKEREFVAAISGSGDDTYYADSVKGRFTISKDNSGITMYLQMNSLRPEDTAVYYCATRRGLYYVWDSNDYENWGQGTLVTVSS
notes: basic variant of IL17MS13E02; Kabat numbering; also called IL17MS3018 basic
B8: IL17MS3035 (VHH)
VHH: B7 VHH with P14A, S73A, M77L, R85K, L117Q
notes: variant of IL17MS13E02; Kabat numbering
B9: IL17MS3036 (VHH)
VHH: B7 VHH with P14A, S73A, R85K, S106T, L117Q
notes: as for B8
B10: IL17MS3020 (VHH)
VHH: B7 VHH with K70R
notes: as for B8
B11: IL17MS3019 (VHH)
VHH: B7 VHH with L35F
notes: as for B8
B12: IL17MS3022 (VHH)
VHH: B7 VHH with I75N
notes: as for B8
B13: IL17MS3021 (VHH)
VHH: B7 VHH with G74K
notes: as for B8
B14: IL17MS3034 (VHH)
VHH: B7 VHH with P14A, M32L, S73A, R85K, L117Q
notes: as for B8
B15: IL17MS3037 (VHH)
VHH: B7 VHH with P14A, S73A, R85K, S106A, L117Q
notes: as for B8
B16: IL17MS3015 (VHH, name in Kabat numbering)
VHH: EVQLVESGGGLVQPGGSLRLSCTASGTIVNIHVMGWYRQAPGKQRELVALIFSGGSADYADSVKGRFTISRDNSKNTVYLQMNSLRPEDTAVYYCAAEIGYYSGGTYYSSEAHWGQGTLVTVSS
notes: basic + Q18L, A84P; Kabat positions
B17: IL17MS3016 (VHH, name in Kabat numbering)
VHH: B16 VHH with L18Q, T23A
notes: basic + T23A, A84P; Kabat positions

target: T3, human IL-17A (human, UniProt Q16552 24-155, biotinylated with Sulfo-NHS-LC-Biotin in the AlphaScreen assays only); test: cell-based or functional assay
T3 sequence (Q16552 other isoform, or with tags, fused parts or gaps): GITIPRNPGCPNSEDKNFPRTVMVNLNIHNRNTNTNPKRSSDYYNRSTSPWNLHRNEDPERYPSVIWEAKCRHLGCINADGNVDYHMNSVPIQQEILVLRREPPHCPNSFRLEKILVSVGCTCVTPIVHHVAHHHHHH

Row | IL-17A-induced IL-6 production in HT-1080 cells, Emax [%] | IL-17A-induced IL-6 production in HT-1080 cells, IC50 [nM] | Binder
1 | 104 | 20.6 | B1
2 | 105 | 15.1 | B2
3 | 100 | 4 | B3
4 | 101 | 4.8 | B4
5 | 99.3 | 16.4 | B5

target: T1, human IL-17F; test: cell-based or functional assay

Row | IL-17F-induced IL-6 production in HT-1080 cells, Emax [%] | IL-17F-induced IL-6 production in HT-1080 cells, IC50 [nM] | Binder
6 | 100 | 112 | B6

target: T4, human IL-17A/F heterodimer (human, UniProt Q16552 24-155; Q96PD4 31-163, limits assumed, biotinylated with Sulfo-NHS-LC-Biotin in the AlphaScreen assays only); test: cell-based or functional assay
Target sequence in this assay (Q16552 24-155 limits assumed, chain 1 of 2, one chain of several): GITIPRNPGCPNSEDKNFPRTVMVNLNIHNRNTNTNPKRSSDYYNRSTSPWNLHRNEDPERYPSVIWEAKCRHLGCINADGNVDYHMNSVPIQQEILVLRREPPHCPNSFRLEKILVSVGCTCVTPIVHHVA

Row | IL-17A/F-induced IL-6 production in HT-1080 cells, Emax [%] | IL-17A/F-induced IL-6 production in HT-1080 cells, IC50 [nM] | Binder
7 | 118 | 37.1 | B1
8 | 107 | 41.8 | B2
9 | 95 | 48.2 | B6

target: T5, human IL-17A (human, UniProt Q16552 24-155); test: SPR (Biacore) off-rate
T5 construct: secreted form made in Hek293 cells (GenBank U32659); also called hIL-17A; hIL17A
T5 sequence (Q16552 other isoform, or with tags, fused parts or gaps): as the sequence (Q16552 other isoform, or with tags, fused parts or gaps) above

Row | koff [s⁻¹] | Binder
10 | 9.26e-05 | B7
11 | 7.59e-05 | B8
12 | 0.000132 | B9
13 | 2.84e-05 | B10
14 | 0.000745 | B11
15 | 6.41e-05 | B12
16 | 0.000216 | B13
17 | 0.000116 | B14
18 | 0.000116 | B15

target: T2, human IL-17F; test: SPR (Biacore) off-rate

Row | koff [s⁻¹] | Binder
19 | 0.00267 | B7
20 | 0.00431 | B8
21 | 0.0044 | B9
22 | 0.00147 | B10
23 | 0.0349 | B11
24 | 0.0024 | B12
25 | 0.00432 | B13
26 | 0.00596 | B14
27 | 0.00367 | B15

target: T6, human IL-17A/F heterodimer (human, UniProt Q16552 24-155; Q96PD4 31-163, limits assumed); test: SPR (Biacore) off-rate
T6 construct: bought, made in E. coli (R&D Systems 5194-IL/CF); also called hIL-17A/F; hIL17A/F

Row | koff [s⁻¹] | Binder
28 | 1.38e-05 | B7
29 | 3.65e-05 | B8
30 | 4.31e-05 | B9
31 | < 1e-06 | B10
32 | 0.00031 | B11
33 | 9.89e-06 | B12
34 | 6.43e-05 | B13
35 | 4.02e-05 | B14
36 | 4.67e-05 | B15

target: T7, human IL-17A (human, UniProt Q16552 24-155); test: AlphaScreen IL-17A-IL-17RA, average
T7 construct: secreted form (GenBank U32659) expressed in Hek293 with C-terminal 6-His; also called hIL-17A; IL-17A-6HIS
T7 sequence (Q16552 other isoform, or with tags, fused parts or gaps): as above

Row | IC50 [nM] | Binder
37 | 0.171 | B16
38 | 0.177 | B17

target: T5, human IL-17A; test: AlphaScreen hIL-17A-IL-17RA; vs IL17MS13E02

Row | IC50 fold difference vs WT [fold] | Binder
39 | 1.13 | B7
40 | 2 | B8
41 | 2.06 | B9
42 | 1.24 | B10
43 | 3.72 | B11
44 | 1.17 | B12
45 | 2.75 | B13
46 | 1.68 | B14
47 | 1.61 | B15

target: T2, human IL-17F; test: AlphaScreen hIL-17F-IL-17RC; vs IL17MS13E02

Row | IC50 fold difference vs WT [fold] | Binder
48 | 0.8 | B7
49 | 1.22 | B8
50 | 2.2 | B9
51 | 1.3 | B10
52 | 4.6 | B11
53 | 0.9 | B12
54 | 0.9 | B13
55 | 2.7 | B14
56 | 1 | B15

target: T3, human IL-17A; test: AlphaScreen competition, hIL-17A - IL-17RA-Fc;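 further: receptor Fc-fusion plus Acceptor and streptavidin Donor beads incubated with the mixture for 1 h at room temperature before reading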
Method: (§1) To this mixture, the IL-17RA or IL-17RC Fc-fusions, Acceptor beads and the streptavidin Donor beads were added and further incubated for 1 hour at RT.

Row | IC50 [nM] | Binder
57 | 0.173 | B1
58 | 0.066 | B2
59 | 0.058 | B3
60 | > 77.9 | B6
61 | 0.13 | B4
62 | 0.256 | B5

target: T3, human IL-17A; test: AlphaScreen competition, hIL-17A - IL-17RC-Fc;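 further: Read-out after 1 h at room temperature with the receptor Fc-fusion, Acceptor beads and streptavidin-coated Donor beads present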
Method: as §1

Row | IC50 [nM] | Binder
63 | 0.408 | B1
64 | 0.169 | B2
65 | 0.38 | B3
66 | > 131 | B6
67 | 0.363 | B4
68 | 0.778 | B5

target: T1, human IL-17F; test: AlphaScreen competition, hIL-17F - IL-17RA-Fc
Method: as §1

Row | IC50 [nM] | Binder
69 | 36.6 | B1
70 | 0.296 | B2
71 | 1.09 | B6

target: T1, human IL-17F; test: AlphaScreen competition, hIL-17F - IL-17RC-Fc
Method: as §1

Row | IC50 [nM] | Binder
72 | 13.3 | B1
73 | 0.168 | B2
74 | 0.052 | B6

target: T3, human IL-17A; test: SPR Biacore, hIL-17A on chip; purified protein

Row | koff [s⁻¹] | Binder
75 | 0.00022 | B1
76 | 0.00029 | B2

target: T1, human IL-17F; test: SPR Biacore, hIL-17F on chip; purified protein
Method: (§2) Off-rates of the periplasmic extracts containing anti-IL-17 Nanobodies were measured by Surface Plasmon Resonance (SPR) using a Biacore T100 instrument. […] Periplasmic extracts containing IL-17 neutralizing Nanobodies were injected for 2 minutes at a flow rate of 45 μl/min to allow binding to chip-bound antigen. Next, binding buffer without periplasmic extracts was sent over the chip at the same flow rate to allow spontaneous dissociation of bound Nanobody. From the sensorgrams obtained for the different periplasmic extracts koff-values (k₄) were calculated.

Row | koff [s⁻¹] | Binder
77 | 0.14 | B1
78 | 0.056 | B2
79 | 0.00053 | B6

target: T4, human IL-17A/F heterodimer; test: AlphaScreen competition, hIL-17A/F - IL-17RA-Fc
Method: as §1

Row | IC50 [nM] | Binder
80 | 0.231 | B1
81 | 0.264 | B2
82 | > 250 | B3
83 | 90.4 | B6
84 | 71.7 | B4

target: T4, human IL-17A/F heterodimer; test: AlphaScreen competition, hIL-17A/F - IL-17RC-Fc
Method: as §1

Row | IC50 [nM] | Binder
85 | 0.087 | B1
86 | 0.801 | B2
87 | 0.389 | B6
88 | 94.7 | B4
89 | > 250 | B5

target: T4, human IL-17A/F heterodimer; test: SPR Biacore, hIL-17A/F on chip; purified protein

Row | koff [s⁻¹] | Binder
90 | 0.00012 | B1
91 | 0.00075 | B2
92 | 0.003 | B6

target: T3, human IL-17A; test: SPR Biacore, hIL-17A on chip; periplasmic extract (*)
Method: as §2

Row | koff [s⁻¹] | Binder
93 | 0.0001 | B3
94 | 0.00044 | B4
95 | 0.0009 | B5

target: T1, human IL-17F; test: SPR Biacore, hIL-17F on chip; periplasmic extract (*); NB = no binding
Method: as §2

Row | binding result | Binder
96 | no binding | B3
97 | no binding | B4
98 | no binding | B5
